According to patent publication US20030100068A1:

Target: RANK (Receptor Activator of NF-kappa B) on primary murine osteoblasts (murine (primary murine osteoblasts)) (UniProt O35305)
Test: cell-based or functional assay

Sequence of UniProt O35305 (O35305 31-625): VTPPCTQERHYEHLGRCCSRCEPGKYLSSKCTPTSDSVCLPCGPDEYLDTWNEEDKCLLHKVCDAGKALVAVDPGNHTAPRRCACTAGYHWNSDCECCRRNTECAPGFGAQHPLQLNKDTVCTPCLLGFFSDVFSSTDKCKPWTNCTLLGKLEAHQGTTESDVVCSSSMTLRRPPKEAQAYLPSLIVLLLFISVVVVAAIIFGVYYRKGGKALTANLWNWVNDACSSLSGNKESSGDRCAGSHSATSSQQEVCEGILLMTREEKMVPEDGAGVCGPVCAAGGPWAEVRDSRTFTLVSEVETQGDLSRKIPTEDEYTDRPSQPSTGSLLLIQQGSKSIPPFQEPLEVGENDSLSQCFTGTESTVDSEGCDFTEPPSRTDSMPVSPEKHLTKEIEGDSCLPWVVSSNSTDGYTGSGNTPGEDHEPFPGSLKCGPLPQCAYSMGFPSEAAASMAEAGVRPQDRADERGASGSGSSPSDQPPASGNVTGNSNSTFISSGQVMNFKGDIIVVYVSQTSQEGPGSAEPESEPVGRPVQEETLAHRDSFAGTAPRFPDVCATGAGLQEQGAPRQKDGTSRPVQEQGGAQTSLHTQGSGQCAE

Row | Substance | surface residence or internalization of RANK on primary osteoblasts exposed to 5 nM ligand (confocal microscopy, anti-RANK staining against membrane dye)
1 | GST-RANKL (fusion product of the external domain of RANKL and glutathione S-transferase) (from UniProt P08515) (ligand) | > 1 h
2 | cleaved RANKL (GST removed from GST-RANKL with human rhinovirus 3C protease) (ligand) | < 1 h
